Here are results for one molecule from article PMC3773880.

The target in the test is Rgps of P. gingivalis HG66 (all gingipain activity released in soluble, non-glycosylated form into media).

B1: PD_(RgpB), recombinant N-terminal prodomain of RgpB, P95493 25-229 (domain or fragment)
chain: GPLGSQPAERGRNPQVRLLSAEQSMSKVQFRMDNLQFTGVQTSKGVAQVPTFTEGVNISEKGTPILPILSRSLAVSETRAMKVEVVSSKFIEKKDVLIAPSKGVISRAENPDQIPYVYGQSYNEDKFFPGEIATLSDPFILRDVRGQVVNFAPLQYNPVTKTLRIYTEIVVAVSETAEAGQNTISLVKNSTFTGFEDIYKSVFMNYEATR
With B1, the IC50 of inhibition of Rgp activity (L-BAPNA): HG66 (cell-free culture medium) was found to be 12 nM and the IC50 of inhibition of Rgp activity (L-BAPNA): HG66 (whole culture) was found to be 116 nM.
